Data published in the supplement of paper PMC10567573.
± gives the standard deviation.

Experiment: protein stability index of a GFP-peptide fusion (GPS, HEK-293T) (PSI 1-6); higher = more stable
[1] = treatment: DMSO, c terminus: a fixed tail appended
[2] = treatment: MLN4924 1 uM, 8 h, c terminus: a fixed tail appended
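Note: 24-mer peptide tiles fused after GFP, lentivirally expressed, FACS-sorted into six equal bins by GFP/DsRed ratio, decoded by Illumina sequencing, PSI is the read-weighted mean bin number.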

Sequence	protein stability index [1]	protein stability index [2]	protein stability index (treatment: DMSO, c terminus: native)	protein stability index (treatment: MLN4924 1 uM, 8 h, c terminus: native)
SPEWDTVTPEAKDLINKMLTINPA [CAMK2D]	4.24 ± 0.42	4.54 ± 0.12		
LSAEPGWQAKREEEEEEEEEAEAG [CHGA]	5.62 ± 0.081	5.4 ± 0.59		
ANQKLSEKLAAGALPHINARGPVR [CCDC3]	3.62 ± 0.43	3.86 ± 0.77		
YVINWFMSFGPEIKLNTSQQGRNQ [FAM104B]	2.67 ± 1.7	2.53 ± 0.71		
AQSGERECHIVVLTDDDVVDWDEE [BTBD10]	5.205 ± 0.041	5.14 ± 0.28		
HRRDGKWQIVHFHRSGAPSVLPH [CAMK2A]			3.2 ± 0.21	3.34 ± 0.24
EECTDLQKEGEFSTCFTELQRDFL [OAS1]	4.5 ± 0.32	4.52 ± 0.47		
SFGWSDRAKVKTDDIARIYQPKRY [FAM98B]	2.9 ± 0.38	2.99 ± 0.54		
KHSSTSSRIAKGGVDHTKMSLHGA [BTBD10]	3.66 ± 0.19	3.79 ± 0.19		
RYQKYGYIGTHEYPHFSHRPSTLQ [OAS1]	2.18 ± 0.14	2.45 ± 0.15		
KREREVDEDSEPEREVRAKNGRVD [USP39]	5.46 ± 0.081	5.69 ± 0.12		
DLPKAKTRAADLLVNPLDPRNADK [SRPK2]	4.85 ± 0.24	5 ± 0.29		
LPILGHRDYKIQASRTWCFYNTED [PTGFR]	2.41 ± 0.31	2.53 ± 0.33		
YPCIPNHELVWAKMKGFGFWPAKV [ZMYND11]	3.09 ± 1.4	2.19 ± 0.3		
YGGSGDGLIPTGSGRHPSHSTTPS [ARFIP2]	4.26 ± 0.069	4.51 ± 0.29		
NMDPKAAEEEEEEEEEVDLACTPT [CCND1]	5.6 ± 0.27	5.64 ± 0.13		
KPPPRKHTRSWAVLKLLLLLLLFG [LRRC59]	2.09 ± 0.3	2.02 ± 0.26		
GPVQVVLVQKDQHSFELDEKALAS [ATL3]	3.65 ± 0.18	4.06 ± 0.2		
KPPKPPDKPLMPYMRYSRKVWDQV [SMARCE1]	2.08 ± 0.33	2.53 ± 0.36		
IVSILPYFITLGTDLAQQQGGGNG [KCNA4]	2.92 ± 0.36	2.54 ± 0.23		
VTMSSLFKHILRTEGAFGLYRGLA [SLC25A25]	2.5 ± 0.69	2.65 ± 0.51		
FTRKTLAEKKQELDKLRNEWASHT [SASS6]	3.15 ± 0.47	3.77 ± 0.6		
MKAHSFVRENVPRVLNSAKEKSST [SOAT1]	4.58 ± 0.12	4.57 ± 0.13		

Sequence	protein stability index [1]	protein stability index [2]	protein stability index (treatment: DMSO, c terminus: native)	protein stability index (treatment: MLN4924 1 uM, 8 h, c terminus: native)
AFHGLSLGLSLTNGLALGPDLNIL [PSD2]	2.57 ± 0.56	2.54 ± 0.5		
KQRLMENTEDWRPRPGTGQSRSFR [PDLIM7]	4.18 ± 0.2	4.418 ± 0.008		
LTPLELLLRQLGRDAGATPSAAGA [ANKRD9]	2.42 ± 0.16	2.58 ± 0.23		
MGVGKASASDGSSFVVARYFPAGN [GLIPR2]	3.13 ± 0.26	2.96 ± 0.26		
SELERLIVPNSNGVITTTPTPPGQ [JUNB]	4.65 ± 0.16	4.75 ± 0.097		
DEMQEVPNRVLAPEQSLKKTKTSE [SPANXN3]	5.57 ± 0.2	5.59 ± 0.24		
QRLLNTPRRKKLKSTSKYIYQTLF [GMCL1]	2.08 ± 0.73	1.75 ± 0.46		
EKPYGCIDCGKAFSQKSCLVAHQR [ZNF649]	2.81 ± 0.07	2.99 ± 0.28		
ERAIRTQPKQLIVDDLKGSLKEDL [SPRY1]	4.81 ± 0.28	4.85 ± 0.18		
PDFCHKFLPGYVGGIQEGAVTPAG [DHCR7]	3.57 ± 0.32	3.6 ± 0.11		
REPQEDSQKDLENDPSVNSQAQET [TOR1AIP2]	5.68 ± 0.15	5.61 ± 0.2		
ASHQQQVLPPRQPSALVPSVTEYR [MYBL2]	4.38 ± 0.28	4.37 ± 0.15		
KAKRRNQEMQQKLVELSAENEKLH [CEBPD]	4.97 ± 0.67	4.8 ± 0.097		
ASTVLKSVGFQSNEAASLASTGVG [SLC2A12]	4.16 ± 0.3	4.15 ± 0.35		
TTIEDEDAKARKQEIIKTTEQLIE [CAMK2B]	5.14 ± 0.22	5.32 ± 0.24		
IVVSLQSKLASMSNDFKSVLEVRT [STX5]	2.7 ± 0.65	2.64 ± 0.72		
RLSKELLAEYQDLTFLTKQEILLA [CIB1]	2.16 ± 0.17	2.11 ± 0.22		
CKACITRWWEDLERDFPCPVCRKT [TRIM39]	3.97 ± 0.27	4.25 ± 0.62		
KNHEEEMKEFSNQVVGQVNVEMDA [KRT13]	5.54 ± 0.079	5.44 ± 0.31		
KATNVVMNYSEIESKVREATNDDP [CLINT1]	5.35 ± 0.27	5.34 ± 0.15		
LLPEDMALRNLPPLRAAHRRFNFD [SMG5]	3.06 ± 0.38	3.2 ± 0.33		
TCEDDEDEELGGSSRVPVGGGPEA [ZBTB22]	5.49 ± 0.14	5.38 ± 0.61		
AKRLWKVCVEHHTFFRLLLPEAPP [EPB41L3]	2.48 ± 0.88	2.42 ± 0.76		

Sequence	protein stability index [1]	protein stability index [2]	protein stability index (treatment: DMSO, c terminus: native)	protein stability index (treatment: MLN4924 1 uM, 8 h, c terminus: native)
TEMAASSQGNFEGNFESLDLAEFA [FUNDC2]	5.21 ± 0.42	5.1 ± 0.44		
FVLLCFAIGALLVCYHYYADWFMS [TMEM40]	2.16 ± 0.31	2.19 ± 0.39		
DEQAPQRQRLLADLLHNVSQNIAA [DFFB]	3.72 ± 0.16	3.58 ± 0.31		
KSVQCGTWTKHAEGGIFTSPNYPS [NETO1]	2.88 ± 0.19	2.89 ± 0.24		
GVIATKQFSRGDFVVEYHGDLIEI [KMT5A]	2.37 ± 0.31	1.68 ± 0.17		
KLEERFMTLAANHELMLRFKDEYK [CCDC89]	2.99 ± 0.28	2.99 ± 0.43		
VLGGRRLRRAWFSWPRASPASGAS [SCNN1D]	2.89 ± 0.35	2.86 ± 0.39		
KVEKMLISSIKEKYPSHSFIGEES [IMPA1]	3.26 ± 0.2	3.17 ± 0.14		
AAFLALLRFLYSDEVQIGPETVMT [BTBD1]	2.49 ± 0.78	2.14 ± 0.004		
SEIKNLERYMCSRFFIDFPHIEEQ [TENT5D]	2.42 ± 0.15	2.22 ± 0.35		
LFPVFLATDYLRYKPVVLLQGLSL [SLC19A2]	2.88 ± 0.41	2.84 ± 0.72		
SDVNDNAPRFNQQLYTAYILENRP [PCDHGC5]	2.87 ± 0.26	3.1 ± 0.31		
PHEDHVFLVANFSQIETLTSVFQK [MATN2]	2.25 ± 0.24	2.35 ± 0.16		
DLRHLRAVPTDEARAFAEKNGLSF [RAB11A]	3.54 ± 0.2	3.52 ± 0.22		
LHQETQLIHVYLPLTSHILRAFVN [SNX8]	3.06 ± 0.67	2.86 ± 0.48		
RKDVGCNRFEVTLEKSNKNFSKKI [VPS39]	3.62 ± 0.22	3.98 ± 0.2		
GGKGHHLPSENLGKEPLDPDPSHS [TOR1AIP2]	5.456 ± 0.051	5.15 ± 0.14		
QSSLLETLYRNRSNLETIFRIIDS [PPEF2]	2.17 ± 0.25	2.15 ± 0.1		
GKEVKVNWATTPSSQKKDTSSSTV [TIA1]	4.76 ± 0.21	4.92 ± 0.36		
GRAENGERSDLEEDNEREGTENGA [ZC3H15]	5.57 ± 0.068	5.57 ± 0.16		
LPDNFTLKEDGMETVPWFPKKISD [TPH1]	4.4 ± 0.19	4.3 ± 0.12		
EVSSPPDTTEEVDHKPKLCRLAKG [PDZK1]	5.11 ± 0.45			
LLRAKIEVEKLKAIRLRHDLPEYN [RAD54B]	2.69 ± 0.43	2.75 ± 0.49		

Sequence	protein stability index [1]	protein stability index [2]	protein stability index (treatment: DMSO, c terminus: native)	protein stability index (treatment: MLN4924 1 uM, 8 h, c terminus: native)
VKDLIKKLLVVDRTRRLGNMKNGA [PRKX]	2.62 ± 0.57	2.33 ± 0.56		
RPCRKFLLTGQCDFGSNCRFSHMS [ZMAT5]	4.2 ± 0.74	4.28 ± 0.58		
KFIKPWESPDEMELDELLKEISRK [PTPRD]	2.32 ± 0.41	2.76 ± 0.38		
GIPNAIISVEGINHDIRTANDGDY [CPXM2]	4.55 ± 0.2	4.71 ± 0.16		
HGPISEVLLIKDRTSKSRGFAFIT [RBMY1A1]	2.83 ± 0.36	2.66 ± 0.91		
NKDGIGEICLWGRHIFMGYLESET [ACSBG2]	2.29 ± 0.46	2.02 ± 0.31		
IDNSSEIEDEDQILENSSQKENVF [FAN1]	5.39 ± 0.28	5.2 ± 0.56		
MQRPYDSRTCIGSSHSRGPLSWAP	3.1 ± 0.31	2.94 ± 0.05		
FLQQSLERVYSLQHLDPQGAQELL [INTS4]	1.91 ± 0.42	2.76 ± 0.54		
LSQAGQKTSAALSTVGSAISRKLG [TPD52L2]	3.67 ± 0.22	3.92 ± 0.27		
GIHLALVELLKNLTKYPTDRDSIW [INTS4]	2.77 ± 0.72	2.75 ± 1		
DHPLPEVAHVKHLSASQKALKEKE [COX4I1]	5.43 ± 0.18	5.47 ± 0.17		
KRYDGLKYDVKKVEEVVYDLSIRG [TSN]	3.33 ± 0.27	3.29 ± 0.094		
EPAGGGRSREARSRLLLLEQELKT [SMAD6]	4.63 ± 0.44	4.87 ± 0.088		
EIIELRRTVNALEIELQAQHNLRY [KRT33B]	2.21 ± 0.22	2.08 ± 0.14		
YLPSTEFSVSSTSRRIYRCRNCIN [IQUB]	2.62 ± 0.31	3.61 ± 0.38		
AHGADPTHRLKDGSTMLIEAAKGG [ANKRD17]	4.7 ± 0.31	4.91 ± 0.16		
TISEFILSEDYNKMTPVKNYQAHQ [WDFY2]	2.66 ± 0.16	2.78 ± 0.14		
DDVEMKNGITQGDKLRALKSQRQP [CDC14A]	4.91 ± 0.25	5.05 ± 0.25		
FCYCAGSHKRKRSSGSFCYCHPDS [GMCL1]	2.56 ± 0.73	3.19 ± 0.61		
